Test results from patent US20170037151A1.

Assays:
SYK pY323 (human) = SYK pY323 (human) (UniProt P43405); assay: IHC pathology score, share of the 15 human DLBCL biopsies scored positive
Total SYK (human) = Total SYK (human) (UniProt P43405); assay: as above
[1] = molecular target: endogenous pSYK (activated SYK, pSYK Y525/526) in stimulated human lymphoma/leukemia cells, xenografts and biopsies (human) (UniProt P43405); assay: IHC, PHTX 95L xenograft untreated, Aperio positive pixel count
[2] = molecular target: endogenous pSYK (activated SYK, pSYK Y525/526) in stimulated human lymphoma/leukemia cells, xenografts and biopsies (human) (UniProt P43405); assay: IHC, PHTX95L xenograft, SYK inhibitor-treated mice, Aperio positive pixel count
[3] = molecular target: endogenous pSYK (activated SYK, pSYK Y525/526) in stimulated human lymphoma/leukemia cells, xenografts and biopsies (human) (UniProt P43405); assay: IHC pathology score, share of the 15 human DLBCL biopsies scored positive

Substance Epitomics 2173 anti-SYK pY323 antibody has a % Positive (SYK pY323 (human)) of 40%.
“Epitomics 1688-1 anti-hSYK (total SYK) antibody” was tested, and the % Positive (Total SYK (human)) was 100%.
“Epitomics 2175-1 anti-pSYK Y525/526 antibody” gave a Percent Positive Pixel per total Pixel [1] of 8.21%, a Percent Positive Pixel per total Pixel [2] of 0.56% and a % Positive [3] of 40%.
